Measurements as given in patent US20250361322A1 (ICONIC THERAPEUTICS, published 2025).
Where two headings read alike, the source gives them in different places.

Key:
[1] = target: T1, human Tissue Factor on human TF-positive cells (human, UniProt P13726 33-295); assay: competition flow cytometry on MDA-MB-231 cells: antibody titration first, then 20 nM FVII-Fc-Alexa488 as the blocked ligand
T1 construct: also called hTF; CD142

[2] = target: T2, full-length mouse TF with a C-terminal FLAG tag on Flp-In-CHO cells (mouse, UniProt P20352 29-294); assay: flow cytometry on CHO cells expressing mouse TF, MFI at 250 nM antibody
T2 construct: also called CHO-mTF; mouse TF-positive CHO cells
Experimental: (§1) After 2 washes, dead cells were labeled with TO-PRO-3 Iodide (ThermoFisher Scientific) and samples were analyzed on a CytoFLEX flow cytometer (Beckman Coulter, Brea, CA, USA) or Novocyte flow cytometer (ACEA Biosciences, San Diego, CA, USA). The median fluorescence intensities (MFIs) at each dilution were plotted and cell EC₅₀'s were derived using a 4-parameter binding model in Prism (GraphPad, La Jolla, CA, USA).

[3] = target: T3, rTF (rat TF) construct on HEK293 cells (rat, UniProt P42533 29-252); assay: live cell staining, HEK293 cells
T3 construct: not shown: transmembrane/cytoplasmic anchor of the cell-surface construct
T3 sequence (P42533 29-252 limits assumed): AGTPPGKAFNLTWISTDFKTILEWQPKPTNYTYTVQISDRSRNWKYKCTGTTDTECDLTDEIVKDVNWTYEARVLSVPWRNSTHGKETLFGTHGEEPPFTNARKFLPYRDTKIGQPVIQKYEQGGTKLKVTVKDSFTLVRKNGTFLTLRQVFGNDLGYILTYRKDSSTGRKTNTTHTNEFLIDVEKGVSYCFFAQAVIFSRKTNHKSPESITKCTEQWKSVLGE

[4] = target: T1, human Tissue Factor on human …; assay: flow cytometry, antibody titration on MDA-MB-231 cells (human TF), 4-parameter fit of MFI
Experimental: as §1

[5] = target: T4, Relipidated TF (UniProt P13726 33-295, limits assumed); assay: cell-based or functional assay
[6] = target: T1, human Tissue Factor on human …; assay: competition flow cytometry on MDA-MB-231 cells: unlabeled antibody titration first, then 20 nM 39A-Alexa488 as the competitor
[7] = target: T5, human TF ECD-His6 (human, UniProt P13726 33-251); assay: BLI (ForteBio Octet)
T5 construct: Expi293-derived; Biacore used TF-His; also called TF-His; hTF
Experimental: (§2) Kinetic measurements for the anti-TF antibodies were conducted on an Octet QK384 (Pall ForteBio, Fremont, CA, USA) or a Biacore (GE Healthcare Bio-Sciences).
(§3) Briefly, ForteBio affinity measurements were performed by loading IgGs on-line onto AHC sensors. Sensors were equilibrated off-line in assay buffer for 30 min and then monitored on-line for 60 seconds for baseline establishment. Sensors with loaded IgGs were exposed to 100 nM antigen (human, cynomolgus, or mouse TF) for 3 min, afterwards they were transferred to assay buffer for 3 min for off-rate measurement. Alternatively, binding measurements were obtained by loading biotinylated TF monomer on SA sensors followed by exposure to 100 nM antibody Fab in solution. Kinetic data was analyzed and fitted using a 1:1 Langmuir binding model and the KD was calculated by dividing the koff by the kₒₙ.

[8] = target: T6, cynomolgus monkey TF ECD-His6 (cynomolgus monkey (Macaca fascicularis)); assay: BLI (ForteBio Octet)
T6 construct: Expi293-derived; also called TF-His; cTF
T6 chain: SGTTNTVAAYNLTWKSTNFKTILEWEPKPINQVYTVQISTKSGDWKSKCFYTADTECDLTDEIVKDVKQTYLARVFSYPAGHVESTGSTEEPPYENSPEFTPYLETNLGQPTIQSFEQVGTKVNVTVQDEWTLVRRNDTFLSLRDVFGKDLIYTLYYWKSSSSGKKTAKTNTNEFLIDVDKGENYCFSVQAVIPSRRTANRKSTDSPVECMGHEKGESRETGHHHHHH
Experimental: as §2, §3

[9] = target: T1, human Tissue Factor on human …; assay: flow cytometry, antibody titration on A431 cells (human TF), 4-parameter fit of MFI
Experimental: as §1

[10] = target: T5, human TF ECD-His6; assay: SPR (Biacore), TF-His over coupled antibody
Experimental: as §2
(§4) For the Biacore-based measurements, the antibody was covalently coupled to a CM5 or C1 chip using an amine-coupling kit (GE Healthcare Bio-Sciences). Association between the anti-TF antibodies and a five-point three-fold titration of TF-His starting at 25 to 500 nM was measured for 300 sec. Subsequently, dissociation between the anti-TF antibody and TF-His was measured for up to 1800 sec. Kinetic data was analyzed and fitted globally using a 1:1 binding model.

[11] = target: T6, cynomolgus monkey TF ECD-His6; assay: SPR (Biacore), TF-His over coupled antibody
Experimental: as §2, §4

[12] = target: T1, human Tissue Factor on human …; assay: competition flow cytometry on MDA-MB-231 cells: unlabeled antibody titration first, then 20 nM 39A-Alexa488 as the competitor; remark: listed apart in the source
[13] = target: T4, Relipidated TF; assay: cell-based or functional assay; remark: listed apart in the source
[14] = target: T2, full-length mouse TF with a C-terminal …; assay: flow cytometry, antibody titration on CHO cells expressing mouse TF
[15] = target: T1, human Tissue Factor on human …; assay: flow cytometry, titration of unconjugated antibody on HCT-116 cells (human TF), 4-parameter fit of MFI
[16] = target: T1, human Tissue Factor on human …; assay: flow cytometry, antibody titration on HCT-116 cells (endogenous human TF), 4-parameter fit of MFI
Experimental: as §1

[17] = target: T7, pig TF-His (Pig (Sus scrofa)); assay: Biacore SPR, antibody captured by anti-human IgG on CM5, pig TF-His titrated from 100 nM, 1:1 fit
T7 construct: also called pig TF ECD-His; pTF
T7 chain: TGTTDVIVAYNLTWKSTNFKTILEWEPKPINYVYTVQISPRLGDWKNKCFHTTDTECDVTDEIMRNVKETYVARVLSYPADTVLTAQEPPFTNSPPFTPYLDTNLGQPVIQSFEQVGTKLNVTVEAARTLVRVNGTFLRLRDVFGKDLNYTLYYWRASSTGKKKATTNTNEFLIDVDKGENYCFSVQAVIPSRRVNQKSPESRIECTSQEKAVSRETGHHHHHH
Experimental: The ability of certain antibodies was tested for binding to pig TF. For pig TF Biacore-based measurements, a given anti-TF antibody was captured by an anti-human IgG antibody covalently coupled to a CM5 chip (GE Healthcare Bio-Sciences). Association between the anti-TF antibodies and a five-point three-fold titration of pig TF-His starting at 100 nM was measured for 180 to 240 sec. Subsequently, dissociation between the anti-TF antibody and TF-His was measured for 1800 sec. Kinetic data was analyzed and fitted globally using a 1:1 binding model.

[18] = target: T8, rTF (rat TF) (rat, UniProt P42533 29-252); assay: live cell staining, flow cytometry, transfected HEK293
Experimental: (§5) To establish binding of the anti-human TF antibodies to the various TF constructs, HEK293 cells were transfected with a DNA plasmid that co-expresses the TF construct and a green fluorescent protein marker. […] Upon acquisition of 80,000 live events on a flow cytometer, live cells marked with the fluorescent marker were analyzed for the degree of staining by the anti-TF antibody.

[19] = target: T9, h1-107_r (human/rat chimera); assay: as above
T9 chain: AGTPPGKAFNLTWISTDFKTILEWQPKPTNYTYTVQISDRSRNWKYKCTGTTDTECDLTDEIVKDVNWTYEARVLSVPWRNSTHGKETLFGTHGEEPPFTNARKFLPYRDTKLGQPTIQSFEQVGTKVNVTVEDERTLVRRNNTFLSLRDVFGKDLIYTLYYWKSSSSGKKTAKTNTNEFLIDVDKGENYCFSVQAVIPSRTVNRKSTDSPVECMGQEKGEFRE
Experimental: as §5

[20] = target: h78-107_r.v2 (human/rat chimera); assay: as above
Experimental: as §5

[21] = target: T10, h1-77_r (human/rat chimera); assay: as above
T10 construct: Human TF ECD with residues 1-77 replaced by rat segment
Experimental: as §5

[22] = target: T11, hTF (human Tissue Factor construct) (human, UniProt P13726 33-251); assay: as above
T11 construct: also called human TF
Experimental: as §5

[23] = target: T8, rTF (rat TF); assay: as above; remark: listed apart in the source
Experimental: as §5

[24] = target: r141-194_h (rat/human chimera, UniProt P42533 29-252); assay: as above
Experimental: as §5

[25] = target: T12, hTF_N171H_T197K (human, UniProt P13726 33-251); assay: as above
T12 chain: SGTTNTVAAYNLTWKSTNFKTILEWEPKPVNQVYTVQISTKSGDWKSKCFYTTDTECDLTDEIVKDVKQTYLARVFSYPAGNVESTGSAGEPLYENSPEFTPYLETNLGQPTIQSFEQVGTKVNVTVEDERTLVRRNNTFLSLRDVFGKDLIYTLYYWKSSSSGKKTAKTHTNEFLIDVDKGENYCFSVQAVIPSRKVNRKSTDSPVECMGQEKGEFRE
Experimental: as §5

B1: 39A (antibody, human IgG1, V domains shown)
VH: QVQLVQSGAEVKKPGSSVKVSCKASGGTFSSNAIGWVRQAPGQGLEWMGSIIPIIGFANYAQKFQGRVTITADESTSTAYMELSSLRSEDTAVYYCARDSGYYYGASSFGMDVWGQGTTVTVSS
VL: EIVMTQSPATLSVSPGERATLSCRASQSVSSNLAWYQQKPGQAPRLLIYGASTRATGIPARFSGSGSGTEFTLTISSLQSEDFAVYYCEQYNNLPLTFGGGTKVEIK
notes: Human IgG1; also called antibody designated 39A
- IC50 (read off the curve) [1]: ~0.8 nM
- MFI at 250 nM [2]: 3700
- binding result [3]: no binding
- EC50 [4]: 0.06 nM
- % ETP at 10 nM Ab (TGA without antibody pre-incubation) [5]: 55%
- % Peak IIa at 10 nM Ab (TGA without antibody pre-incubation) [5]: 20%
- % Peak IIa at 50 nM Ab (TGA without antibody pre-incubation) [5]: 7%
- % Peak IIa at 100 nM Ab (TGA without antibody pre-incubation) [5]: 6%
- ETP at 10 nM Ab (TGA without antibody pre-incubation) [5]: 1330 nM·min
- Lag Time at 10 nM Ab (TGA without antibody pre-incubation) [5]: 12.1 min
- Lag Time at 50 nM Ab (TGA without antibody pre-incubation) [5]: 30.5 min
- Lag Time at 100 nM Ab (TGA without antibody pre-incubation) [5]: 28.9 min
- Peak IIa at 10 nM Ab (TGA without antibody pre-incubation) [5]: 82 nM
- Peak IIa at 50 nM Ab (TGA without antibody pre-incubation) [5]: 30 nM
- Peak IIa at 100 nM Ab (TGA without antibody pre-incubation) [5]: 26 nM
- ttPeak at 10 nM Ab (TGA without antibody pre-incubation) [5]: 19.6 min
- ttPeak at 50 nM Ab (TGA without antibody pre-incubation) [5]: 40 min
- ttPeak at 100 nM Ab (TGA without antibody pre-incubation) [5]: 40.1 min
- IC50 [6]: 0.5 nM
- Kd [7]: 0.83 nM
- Kd [8]: 0.57 nM
- EC50 [9]: 0.34 nM
- Kd [10]: 0.09 nM
- Kd [11]: 0.08 nM
- IC50 [12]: 0.49 nM
- % ETP at 10 nM Ab (TGA with 10 min antibody pre-incubation) [13]: 28%
- % ETP at 50 nM Ab (TGA with 10 min antibody pre-incubation) [13]: 20%
- % Peak IIa at 10 nM Ab (TGA with 10 min antibody pre-incubation) [13]: 9%
- % Peak IIa at 50 nM Ab (TGA with 10 min antibody pre-incubation) [13]: 7%
- % Peak IIa at 100 nM Ab (TGA with 10 min antibody pre-incubation) [13]: 7%
- ETP at 10 nM Ab (TGA with 10 min antibody pre-incubation) [13]: 482 nM·min
- ETP at 50 nM Ab (TGA with 10 min antibody pre-incubation) [13]: 346 nM·min
- Lag Time at 10 nM Ab (TGA with 10 min antibody pre-incubation) [13]: 20.8 min
- Lag Time at 50 nM Ab (TGA with 10 min antibody pre-incubation) [13]: 28.4 min
- Lag Time at 100 nM Ab (TGA with 10 min antibody pre-incubation) [13]: 28 min
- Peak IIa at 10 nM Ab (TGA with 10 min antibody pre-incubation) [13]: 25 nM
- Peak IIa at 50 nM Ab (TGA with 10 min antibody pre-incubation) [13]: 17 nM
- Peak IIa at 100 nM Ab (TGA with 10 min antibody pre-incubation) [13]: 17 nM
- ttPeak at 10 nM Ab (TGA with 10 min antibody pre-incubation) [13]: 30.7 min
- ttPeak at 50 nM Ab (TGA with 10 min antibody pre-incubation) [13]: 38.9 min
- ttPeak at 100 nM Ab (TGA with 10 min antibody pre-incubation) [13]: 40.2 min
- binding result [14]: no binding (tested: 250 nM)
- EC50 [15]: 0.09 nM
- EC50 [16]: 0.039 nM

B2: 43D8 (antibody, V domains shown)
VH: QVQLQQWGAGLLKPSETLSLTCAVYGGSLSGYYWSWIRQPPGKGLEWIGEIGASGSTRYNPSLKSRVTISVDTSKNQFSLKLSSVTAADTAVYYCARDTPYYYEGGYYYYMDVWGKGTTVTVSS
VL: EIVLTQSPGTLSLSPGERATLSCRASQSVSSSFLAWYQQKPGQAPRLLIYGAYSRATGIPDRFSGSGSGTDFTLTISRLEPEDFAVYYCQQAGVVPYTFGGGTKVEIK
notes: Human IgG (captured by anti-human IgG in the Biacore assay); also called antibody designated 43D8
- Kd [17]: 12.9 nM

B3: 25G9 (antibody, V domains shown)
VH: QVQLVQSGAEVKKPGASVKVSCKASGYTFRSYGISWVRQAPGQGLEWMGWVAPYSGNTNYAQKLQGRVTMTTDTSTSTAYMELRSLRSDDTAVYYCARDAGTYSPYGYGMDVWGQGTTVTVSS
VL: DIQMTQSPSTLSASVGDRVTITCQASQSIDSWLAWYQQKPGKAPKLLIYSASYLESGVPSRFSGSGSGTEFTLTISSLQPDDFATYYCQRFQSLPPFTFGGGTKVEIK
notes: Human IgG (captured by anti-human IgG in the Biacore assay); also called antibody designated 25G9
- Kd [17]: 3.31 nM

B4: 29E (antibody, V domains shown)
VH: QVQLVESGGGVVQPGRSLRLSCAASGFTFRSYGMHWVRQAPGKGLEWVAVITYDGINKYYADSVEGRFTISRDNSKNTLYLQMNSLRAEDTAVYYCARDGVYYGVYDYWGQGTLVTVSS
VL: not shown
notes: Human IgG (detected with anti-human IgG-Fc)
- percent antibody binding to TF construct relative to hTF [18]: 0%
- percent antibody binding to TF construct relative to hTF [19]: 0%
- percent antibody binding to TF construct relative to hTF [20]: 0%
- percent antibody binding to TF construct relative to hTF [21]: 0%
- percent antibody binding to TF construct relative to hTF [22]: 100%
- percent antibody binding to TF construct relative to hTF [23]: 0%
- percent antibody binding to TF construct relative to hTF [24]: 0%
- percent antibody binding to TF construct relative to hTF [25]: 98%

B5: 1F (antibody, V domains shown)
VH: EVQLLESGGGLVQPGGSLRLSCAASGFTFSDYAMGWVRQAPGKGLEWVSTISGSGGLTYYADSVKGRFTISRDNSKNTLYLQMNSLRAEDTAVYYCAKAPYGYYMDVWGKGTTVTVSS
VL: not shown
notes: as for B4
- percent antibody binding to TF construct relative to hTF [18]: 0%
- percent antibody binding to TF construct relative to hTF [19]: 0%
- percent antibody binding to TF construct relative to hTF [20]: 0%
- percent antibody binding to TF construct relative to hTF [21]: 0%
- percent antibody binding to TF construct relative to hTF [22]: 100%
- percent antibody binding to TF construct relative to hTF [23]: 0%
- percent antibody binding to TF construct relative to hTF [24]: 0%
- percent antibody binding to TF construct relative to hTF [25]: 83%
